Data on five molecules can be found in paper PMC10491584, “Structural convergence endows nuclear transport receptor Kap114p with a transcriptional repressor function toward TATA-binding protein” (Nature Communications, 2023).

Residue numbers refer to the chain shown, from its start. Names and notes keep the numbering of the source.

What all share (settings): both partners purified
For one assay, the target named is T1, Kap114p wild type (S. cerevisiae, UniProt P53067 1-1004).
T1 construct: Kap114p (karyopherin-β), S. cerevisiae, full length, amplified from total genomic DNA; GST tag followed by a PreScission site (modified pGEX6p1); PreScission protease added during dialysis; also called Kap114p WT; GST-Kap114p (plasmid pGEX-6P-1-Kap114); source: E. coli Rosetta, purified (GST resin, MonoQ, Superdex 200)
T1 sequence (looked up): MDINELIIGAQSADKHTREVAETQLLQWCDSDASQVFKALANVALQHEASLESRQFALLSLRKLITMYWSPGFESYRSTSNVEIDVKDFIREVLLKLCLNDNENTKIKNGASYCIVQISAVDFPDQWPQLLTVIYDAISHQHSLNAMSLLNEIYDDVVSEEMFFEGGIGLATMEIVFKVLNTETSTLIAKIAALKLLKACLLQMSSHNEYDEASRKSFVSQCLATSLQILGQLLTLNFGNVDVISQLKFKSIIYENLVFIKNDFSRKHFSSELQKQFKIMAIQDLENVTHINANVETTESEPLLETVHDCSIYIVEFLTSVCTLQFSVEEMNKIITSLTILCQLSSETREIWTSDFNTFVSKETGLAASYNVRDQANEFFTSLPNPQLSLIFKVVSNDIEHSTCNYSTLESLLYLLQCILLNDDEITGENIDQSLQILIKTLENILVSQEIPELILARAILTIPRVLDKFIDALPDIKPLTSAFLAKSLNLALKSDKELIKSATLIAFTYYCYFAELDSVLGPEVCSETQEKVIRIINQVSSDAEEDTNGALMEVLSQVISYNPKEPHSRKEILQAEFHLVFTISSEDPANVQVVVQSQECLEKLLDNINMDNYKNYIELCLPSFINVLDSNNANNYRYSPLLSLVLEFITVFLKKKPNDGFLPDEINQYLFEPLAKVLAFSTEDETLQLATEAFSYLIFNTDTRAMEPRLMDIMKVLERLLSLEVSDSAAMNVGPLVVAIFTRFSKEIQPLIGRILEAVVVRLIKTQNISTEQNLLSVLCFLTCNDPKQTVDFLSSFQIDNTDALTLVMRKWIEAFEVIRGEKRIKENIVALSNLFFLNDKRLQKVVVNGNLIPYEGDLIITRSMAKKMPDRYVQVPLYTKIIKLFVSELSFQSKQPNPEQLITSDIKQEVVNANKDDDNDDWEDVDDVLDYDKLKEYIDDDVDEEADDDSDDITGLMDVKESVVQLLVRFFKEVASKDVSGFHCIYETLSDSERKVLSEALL
As to the kind of experiment: ITC; MicroCal iTC200, 25 °C, 20 mM HEPES pH 7.4, 150 mM NaCl; high concentration: 50 µM wild type or mutant Kap114p in the sample cell, 500 µM wild type or mutant yTBPC in the syringe; triplicate. A general note: ITC needs no label: the signal is the heat of the interaction.

For a further assay, the target named is T2, Kap95p (S. cerevisiae, UniProt Q06142 1-861).
T2 construct: Kap95p, S. cerevisiae, full length; The purification paragraph is headed for Kap114p proteins; that Kap95p was treated alike is surmised; source: E. coli, GST-tagged construct in modified pGEX6p1; purification told for the GST-tagged proteins; not shown: GST, N-terminal, cleaved
T2 sequence (looked up): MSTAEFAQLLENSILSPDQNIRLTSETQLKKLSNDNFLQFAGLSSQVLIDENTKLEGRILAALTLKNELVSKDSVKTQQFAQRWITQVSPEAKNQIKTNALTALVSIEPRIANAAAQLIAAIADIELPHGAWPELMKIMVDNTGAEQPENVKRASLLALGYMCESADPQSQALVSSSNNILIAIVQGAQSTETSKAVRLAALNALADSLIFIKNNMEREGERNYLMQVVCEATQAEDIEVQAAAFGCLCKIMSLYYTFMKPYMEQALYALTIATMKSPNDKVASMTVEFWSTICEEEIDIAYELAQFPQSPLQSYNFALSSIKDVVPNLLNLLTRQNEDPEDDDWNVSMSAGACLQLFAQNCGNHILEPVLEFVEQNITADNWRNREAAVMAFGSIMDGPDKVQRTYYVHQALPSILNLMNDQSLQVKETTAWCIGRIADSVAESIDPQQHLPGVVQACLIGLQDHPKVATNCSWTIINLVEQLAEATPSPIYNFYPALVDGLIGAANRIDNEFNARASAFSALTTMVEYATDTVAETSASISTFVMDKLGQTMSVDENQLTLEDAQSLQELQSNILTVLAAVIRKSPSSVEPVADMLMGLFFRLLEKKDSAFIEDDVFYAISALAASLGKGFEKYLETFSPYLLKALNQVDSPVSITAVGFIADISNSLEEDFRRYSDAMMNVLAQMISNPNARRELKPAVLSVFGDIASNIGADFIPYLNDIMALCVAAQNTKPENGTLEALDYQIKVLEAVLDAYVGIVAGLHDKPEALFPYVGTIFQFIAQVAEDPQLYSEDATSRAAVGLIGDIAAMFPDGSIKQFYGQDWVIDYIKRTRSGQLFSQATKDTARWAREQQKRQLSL
As to the kind of experiment: ITC; Kap95p with wild type or R141A yTBP^C; which protein was in the cell is not told for Kap95p; n = 3.

The next assay addresses T3, Kap114p (wild type) (S. cerevisiae, UniProt P53067 1-1004).
T3 construct: Kap114p, S. cerevisiae, full length, amplified from total genomic DNA; GST tag removed with PreScission protease; also called karyopherin-β Kap114p; source: E. coli Rosetta, purified (GST resin, MonoQ, Superdex 200); not shown: GST, N-terminal, cleaved
T3 sequence (looked up): T1 sequence (looked up)
As to the kind of experiment: ITC; MicroCal iTC200, 25 °C, 20 mM HEPES pH 7.4, 150 mM NaCl; 25 or 50 μM wild type or mutant Kap114p in the cell, 250 or 500 μM wild-type or mutant yTBP^C in the syringe; triplicate.

The target in a further assay is T4, Kap114p (Y370A) (S. cerevisiae, UniProt P53067 1-1004, Y370A).
T4 construct: Kap114p, S. cerevisiae, full length with Y370A; also called GST-Kap114p (Y370A); source: E. coli Rosetta, purified (GST resin, MonoQ, Superdex 200)
T4 sequence (looked up): T1 sequence (looked up) with Y370A
As to the kind of experiment: ITC; MicroCal iTC200, 25 °C, 20 mM HEPES pH 7.4, 150 mM NaCl; low concentration: 25 µM wild type or mutant Kap114p in the sample cell, 250 µM wild type or mutant yTBPC in the syringe; triplicate.

The next assay concerns the target T5, Kap114p(Y370A) (S. cerevisiae, UniProt P53067 1-1004, Y370A).
T5 construct: Kap114p, S. cerevisiae, full length, point mutant Y370A; source: E. coli Rosetta, purified (GST resin, MonoQ, Superdex 200); not shown: GST, N-terminal, cleaved
T5 sequence (looked up): T1 sequence (looked up) with Y370A
As to the kind of experiment: ITC; MicroCal iTC200, 25 °C, 20 mM HEPES pH 7.4, 150 mM NaCl; 25 or 50 μM wild type or mutant Kap114p in the cell, 250 or 500 μM wild-type or mutant yTBP^C in the syringe; triplicate.

Assay [1] has as its target T6, Kap114p (Q597A) (S. cerevisiae, UniProt P53067 1-1004, Q597A).
T6 construct: Kap114p, S. cerevisiae, full length with Q597A; also called GST-Kap114p (Q597); source: E. coli Rosetta, purified (GST resin, MonoQ, Superdex 200)
T6 sequence (looked up): T1 sequence (looked up) with Q597A
As to the kind of experiment: ITC; MicroCal iTC200, 25 °C, 20 mM HEPES pH 7.4, 150 mM NaCl; low concentration: 25 µM wild type or mutant Kap114p in the sample cell, 250 µM wild type or mutant yTBPC in the syringe; triplicate.

Assay [2] has as its target T6, Kap114p (Q597A). In words: ITC; MicroCal iTC200, 25 °C, 20 mM HEPES pH 7.4, 150 mM NaCl; high concentration: 50 µM wild type or mutant Kap114p in the sample cell, 500 µM wild type or mutant yTBPC in the syringe; triplicate.

One may read the Kd as the constant that tells how readily two partners part at equilibrium. A higher Kd goes with weaker binding.

B1: yTBP^C (K145A) (domain or fragment, S. cerevisiae, UniProt P13393 61-240, looked up)
chain: SGIVPTLQNIVATVTLGCRLDLKTVALHARNAEYNPKRFAAVIMRIREPKTTALIFASGKMVVTGAKSEDDSKLASRKYARIIQAIGFAAKFTDFKIQNIVGSCDVKFPIRLEGLAFSHGTFSSYEPELFPGLIYRMVKPKIVLLIFVSGKIVLTGAKQREEIYQAFEAIYPVLSEFRKM
notes: also called yTBP(K145A); pET28a-Spt15 (61-240) (K145A); source: E. coli Rosetta, purified (Ni-NTA, HiTrap SP, Superdex 75); not shown: His6, N-terminal, cleaved
B1 came in with a Kd with Kap114p wild type of 238 nM.

B2: yTBP^C (R141A) (domain or fragment, S. cerevisiae, UniProt P13393 61-240, looked up)
chain: B1 chain with R81A, A85K
notes: 61-240, point mutant R141A; also called yTBP(R141A); source: E. coli Rosetta, purified (Ni-NTA, HiTrap SP, Superdex 75); not shown: His6, N-terminal, cleaved
Molecule B2 came in with a dissociation constant (Kd) in the assay with Kap95p of approximately 9700 nM. Besides, in the assay with Kap114p (wild type), the “fold reduction of the binding affinity against wild type yTBP^C” value was more than 200 fold.

B3: yTBP^C (N91A) (domain or fragment, S. cerevisiae, UniProt P13393 61-240, looked up)
chain: B1 chain with N31A, A85K
notes: also called yTBP(N91A); His-yTBP (61-240) (N91A); source: E. coli Rosetta, purified (Ni-NTA, HiTrap SP, Superdex 75); not shown: His6, N-terminal, cleaved
Consider B3, for which the Kd in the assay with Kap114p (Y370A) was determined as 938 nM; with Kap114p wild type, 28.9 nM.

B4: yTBP^C (N91A) (domain or fragment, S. cerevisiae, UniProt P13393 61-240, looked up)
chain: B1 chain with N31A, A85K
notes: 61-240, point mutant N91A; also called yTBP(N91A); source: E. coli Rosetta, purified (Ni-NTA, HiTrap SP, Superdex 75); not shown: His6, N-terminal, cleaved
In turn, B4 returned a dissociation constant Kd with Kap114p(Y370A) of approximately 1500 nM.

B5: yTBP^C (R141A) (domain or fragment, S. cerevisiae, UniProt P13393 61-240, looked up)
chain: B1 chain with R81A, A85K
notes: also called yTBP(R141A); His-yTBP (61-240) (R141A); source: E. coli Rosetta, purified (Ni-NTA, HiTrap SP, Superdex 75); not shown: His6, N-terminal, cleaved
Turning to B5, the Kd came to 165 nM with Kap114p (Q597A) [1], 255 nM with Kap114p wild type and 316 nM with Kap114p (Q597A) [2].
